A word on the EC50: it is the midpoint of the concentration-response curve.

We go through three molecules from patent publication US20240109963A1 (AB THERAPEUTICS, published 2024).

Assay [1] has as its target T1, full-length human Claudin 18.2 on MIA PaCa-2 cells (MIA PaCa-2+ Claudin 18.2) (human, UniProt P56856-2 1-261).
T1 sequence (looked up): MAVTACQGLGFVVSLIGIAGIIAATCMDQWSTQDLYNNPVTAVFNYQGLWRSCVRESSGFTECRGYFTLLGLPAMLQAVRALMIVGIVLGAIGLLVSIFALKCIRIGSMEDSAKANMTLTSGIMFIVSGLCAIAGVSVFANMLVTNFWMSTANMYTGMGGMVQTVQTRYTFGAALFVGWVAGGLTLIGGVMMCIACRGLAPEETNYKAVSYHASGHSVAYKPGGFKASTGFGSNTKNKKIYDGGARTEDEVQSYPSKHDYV
The assay can be described thus: cell-based or functional assay.

The target of the next assay is T2, CD3 on Jurkat cells.
T2 construct: whole, on cells; also called CD3+ Jurkat cells
T2 sequence (P07766 23-207, chain 1 of 3): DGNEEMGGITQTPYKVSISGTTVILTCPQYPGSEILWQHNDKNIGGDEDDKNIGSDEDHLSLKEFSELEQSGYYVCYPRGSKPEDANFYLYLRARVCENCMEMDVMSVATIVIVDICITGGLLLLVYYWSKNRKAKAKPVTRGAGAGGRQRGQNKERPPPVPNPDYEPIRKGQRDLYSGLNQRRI
T2 sequence (P09693 23-182, chain 2 of 3, further chain): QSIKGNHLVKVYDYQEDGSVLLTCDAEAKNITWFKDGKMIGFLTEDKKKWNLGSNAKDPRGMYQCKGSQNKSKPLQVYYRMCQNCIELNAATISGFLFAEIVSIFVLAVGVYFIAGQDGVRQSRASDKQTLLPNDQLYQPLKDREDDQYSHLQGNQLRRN
T2 sequence (P04234 22-171, chain 3 of 3, further chain): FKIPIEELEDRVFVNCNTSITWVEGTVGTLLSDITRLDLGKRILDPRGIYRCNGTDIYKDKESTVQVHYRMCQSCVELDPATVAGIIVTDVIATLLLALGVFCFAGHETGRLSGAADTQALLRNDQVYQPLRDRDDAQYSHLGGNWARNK
The assay can be described thus: flow cytometry on Jurkat cells, CD3 binding (T cell) (summary table).

Assay [2] has as its target T3, Claudin 18.2 on CHO cells (CHO+ Claudin 18.2) (UniProt P56856-2 1-261).
T3 construct: whole, on cells; also called CHO_18.2
T3 sequence (looked up): T1 sequence (looked up)
Description: flow cytometry, unpurified supernatant on CHO+ Claudin 18.2 cells, FITC-positive cells. The protocol:
To compare the half maximal effective concentration (EC50) of the lead BsAbs, 8.5×10⁴ cells/well of CHO+ Claudin 18.2 cells in 100 μl FACS buffer were seeded in a V-bottom 96-well plate. […] The final concentrations of the BsAbs were 10 μg/ml, 1 μg/ml, 100 ng/ml, 10 ng/ml, 1 ng/ml, 100 pg/ml, 10 pg/ml, and 1 pg/ml. After incubating the plate at RT for 45 minutes, the cells were washed twice with the FACS buffer and cell pellets were resuspended in 100 μl FACS buffer containing goat anti-human-FITC (1:200) for 30 minutes at RT in dark. Afterwards, the cells were washed twice with FACS buffer, and cell pellets were resuspended in 120 μl FACS buffer. The percentage of FITC-positive cells were analyzed by flow cytometry.

B1: Claudin 18.2-1B2/CD3 BsAb (BiSpecific-V1 structure) (bispecific antibody)
VHH-Fc: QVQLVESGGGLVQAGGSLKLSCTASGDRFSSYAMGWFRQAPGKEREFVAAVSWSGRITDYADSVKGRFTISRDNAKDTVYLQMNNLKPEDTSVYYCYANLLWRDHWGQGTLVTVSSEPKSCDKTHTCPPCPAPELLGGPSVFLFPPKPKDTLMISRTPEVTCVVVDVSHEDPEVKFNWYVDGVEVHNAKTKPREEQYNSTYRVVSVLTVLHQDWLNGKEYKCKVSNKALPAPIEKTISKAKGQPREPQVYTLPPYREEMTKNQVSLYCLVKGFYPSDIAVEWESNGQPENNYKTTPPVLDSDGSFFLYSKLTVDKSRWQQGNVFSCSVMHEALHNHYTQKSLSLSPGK
heavy: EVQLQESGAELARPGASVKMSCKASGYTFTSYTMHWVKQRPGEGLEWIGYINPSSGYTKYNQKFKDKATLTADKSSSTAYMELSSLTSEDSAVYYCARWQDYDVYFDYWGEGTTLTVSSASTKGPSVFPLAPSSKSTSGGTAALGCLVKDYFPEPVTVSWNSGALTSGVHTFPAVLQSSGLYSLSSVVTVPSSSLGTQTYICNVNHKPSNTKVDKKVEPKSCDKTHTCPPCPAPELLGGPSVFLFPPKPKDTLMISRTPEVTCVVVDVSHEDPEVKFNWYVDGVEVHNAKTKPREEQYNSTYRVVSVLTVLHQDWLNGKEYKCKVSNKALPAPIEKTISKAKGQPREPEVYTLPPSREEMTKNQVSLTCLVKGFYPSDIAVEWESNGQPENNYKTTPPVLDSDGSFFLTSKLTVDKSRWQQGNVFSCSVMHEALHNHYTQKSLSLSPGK
light: QIVLSQSPAILSASPGEKVTMTCRASSSVSYIHWFQQKPGSSPKPWIYATSNLASGVPVRFSGSGSGTSYSLTISRVEAEDAATYYCQQWTSNPPTFGGGTKLEIKRTVAAPSVFIFPPSDEQLKSGTASVVCLLNNFYPREAKVQWKVDNALQSGNSQESVTEQDSKDSTYSLSSTLTLSKADYEKHKVYACEVTHQGLSSPVTKSFNRGEC
Take B1: the “T cell activation EC50 (CD69-positive cells)” value in assay [1] amounted to 0.056 µg/mL. Also, a half-maximal effect with CD3 on Jurkat cells (EC50) was put at 58.9 µg/mL.

B2: Claudin 18.2-3C2/CD3 BsAb (BiSpecific-V1 structure) (bispecific antibody)
VHH-Fc: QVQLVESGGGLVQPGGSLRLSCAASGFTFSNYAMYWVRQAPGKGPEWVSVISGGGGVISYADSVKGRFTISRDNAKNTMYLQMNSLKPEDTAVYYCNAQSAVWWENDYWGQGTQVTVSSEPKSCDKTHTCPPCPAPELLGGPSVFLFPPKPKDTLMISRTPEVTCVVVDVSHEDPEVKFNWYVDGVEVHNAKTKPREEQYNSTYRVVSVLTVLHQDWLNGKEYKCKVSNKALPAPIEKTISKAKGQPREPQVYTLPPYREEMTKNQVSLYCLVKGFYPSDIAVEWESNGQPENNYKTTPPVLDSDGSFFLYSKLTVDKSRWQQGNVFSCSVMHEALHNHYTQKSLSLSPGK
heavy: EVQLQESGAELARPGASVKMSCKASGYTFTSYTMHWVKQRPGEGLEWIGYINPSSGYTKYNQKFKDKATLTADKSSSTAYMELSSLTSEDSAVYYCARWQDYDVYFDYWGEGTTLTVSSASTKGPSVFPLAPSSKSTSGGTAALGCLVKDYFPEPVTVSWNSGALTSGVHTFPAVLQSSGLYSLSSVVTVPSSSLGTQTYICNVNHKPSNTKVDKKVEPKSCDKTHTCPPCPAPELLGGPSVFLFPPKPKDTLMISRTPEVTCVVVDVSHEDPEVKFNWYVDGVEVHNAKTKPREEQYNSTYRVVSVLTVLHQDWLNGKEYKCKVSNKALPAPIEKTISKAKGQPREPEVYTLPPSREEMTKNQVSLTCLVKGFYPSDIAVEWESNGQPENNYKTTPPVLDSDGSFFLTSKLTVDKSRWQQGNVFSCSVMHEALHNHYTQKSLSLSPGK
light: B1 light
notes: tested as unpurified culture supernatant
The molecule B2 returned an EC50 in assay [2] of approximately 0.013 µg/mL.

B3: Claudin 18.2-4G1/CD3 BsAb (BiSpecific-V1 structure) (bispecific antibody)
VHH-Fc: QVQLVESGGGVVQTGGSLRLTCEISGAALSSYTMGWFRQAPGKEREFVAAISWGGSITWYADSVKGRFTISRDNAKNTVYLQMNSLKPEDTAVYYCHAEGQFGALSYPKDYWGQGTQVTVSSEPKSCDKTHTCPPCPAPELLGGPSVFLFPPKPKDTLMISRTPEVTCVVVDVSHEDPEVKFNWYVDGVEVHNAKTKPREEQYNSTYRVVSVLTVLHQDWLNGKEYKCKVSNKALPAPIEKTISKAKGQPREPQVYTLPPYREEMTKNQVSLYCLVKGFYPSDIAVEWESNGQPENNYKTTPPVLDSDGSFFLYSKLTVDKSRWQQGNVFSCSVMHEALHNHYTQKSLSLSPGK
heavy: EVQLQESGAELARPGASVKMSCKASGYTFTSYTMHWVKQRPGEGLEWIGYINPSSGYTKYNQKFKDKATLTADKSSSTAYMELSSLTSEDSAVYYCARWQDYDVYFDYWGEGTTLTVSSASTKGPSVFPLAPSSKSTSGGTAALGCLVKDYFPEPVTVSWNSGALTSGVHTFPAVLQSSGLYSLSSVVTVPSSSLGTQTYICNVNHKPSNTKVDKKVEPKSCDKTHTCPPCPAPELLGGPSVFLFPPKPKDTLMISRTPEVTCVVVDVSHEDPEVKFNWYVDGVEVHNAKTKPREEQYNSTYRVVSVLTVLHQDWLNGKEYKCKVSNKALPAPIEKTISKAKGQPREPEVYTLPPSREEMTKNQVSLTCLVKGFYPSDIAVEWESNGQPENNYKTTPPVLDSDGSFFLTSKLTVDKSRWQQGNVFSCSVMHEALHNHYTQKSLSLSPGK
light: B1 light
notes: as for B2
Molecule B3 came in with an EC50 in assay [2] of approximately 0.006 µg/mL.
